Target: T1, hCD155 (Table 28) (human, UniProt P15151 21-343, limits assumed)
T1 sequence (looked up): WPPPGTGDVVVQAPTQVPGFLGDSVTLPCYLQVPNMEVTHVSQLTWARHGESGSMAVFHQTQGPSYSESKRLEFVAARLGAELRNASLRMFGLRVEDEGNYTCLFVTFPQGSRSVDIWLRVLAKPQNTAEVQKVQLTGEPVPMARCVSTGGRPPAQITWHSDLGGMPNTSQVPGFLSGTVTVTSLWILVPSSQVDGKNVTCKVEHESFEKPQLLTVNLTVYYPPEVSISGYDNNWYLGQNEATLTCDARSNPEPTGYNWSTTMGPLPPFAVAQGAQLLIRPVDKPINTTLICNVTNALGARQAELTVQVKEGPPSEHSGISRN
Assay: SPR 25C, biotin-CD226-His captured, steady state fitting
Protocol: To determine the binding affinity to hu-CD226 and cy-CD226 of mAb1.v7.NGS8, h10G1, hCD155 and anti-hCD226 antibody DX11 (Abcam, cat #Ab33397), SPR measurement with a BIACORE™ 8K instrument was performed. Briefly, a 1:4 dilution of Biotin CAPture Reagent (GE Healthcare) into HBS-EP buffer (0.01 M HEPES pH 7.4, 0.15 M NaCl, 3 mM EDTA, 0.005% Surfactant P20) was applied to the chip at 2 µL/min flow rate. For the kinetics measurements, 5 µg/ml of biotinylated hu-CD226 His tag (Sino biological, cat #10565-H08H) and cy-CD226 His tag (Arco biosystems, cat #DN1-052H9) was captured at 10 µL/min to achieve ~50 response units in the second flow cell (FC2). FC1 was kept as a reference. Next, 3-fold serial dilutions of IgG in HBS-P buffer (0.01 M HEPES pH 7.4, 0.15 M NaCl, 0.005% surfactant P20) from low (1.3 nM) to high (1000 nM) concentration were injected (flow rate: 30 µL/min) at 25° C. The sensorgram was recorded and subject to reference and buffer subtraction before evaluating by BIACORE® 8K Evaluation Software (version 1.1.1.7442). Association rates ($kon$) and dissociation rates ($koff$) were calculated using a simple one-to-one Langmuir binding model. The equilibrium dissociation constant (K_D) value was calculated as the ratio of $koff/kon$. […]

B1: cy-CD226 His tag (receptor, cynomolgus monkey)
chain: EEVLWHTSVPFAENMSLECVYPSVGILTQVEWFKIGTEKDSIAIFSPTHGMVIRKPYAERVYFLNSTMASNNMTLFFRNASEDDVGYYSCSLYTYPQGTWQKVIQVVQSDGFEAAVPPNSHIVSEPGKNITLTCQPQMTWPVQEVRWEKVQPHQIDLLTYCDLVHGRNFTSKFPRQIVSNCSHGSWSFIVVPDVTASDSGLYRCHLQASAGENETFVMRLTVAEGQTDN
modifications: biotinylated
Kd: 67.5 nM
